B1: Sf-CR10-12 (receptor)
chain: MKFLDRLSATDEDGLHAGRVTFSIAGNDEAAEYFNVLNDGDNSAMLTLKQALPAGVQQFELVIRATDGGTEPGPRSTDCSVTVVFVMTQGDPVFDDNAASVRFVEKEAGMSEKFQLPQADDPKNYRCMDDCHTIYYSIVDGNDGDHFAVEPETNVIYLLKPLDRSQQEQYRVVVAASNTPGGTSTLSSSLLTVTIGVREANPRPIFESEFYTAGVLHTDSIHKELVYLAAKHSEGLPIVYSIDQETMKIDESLQTVVEDAFDINSATGVISLNFQPTSVMHGSFDFEVVASDTRGASDRAKVSIYMISTRVRVHHHHHH
B2: Ms-CR10-12(PS) (receptor)
chain: MHLECISATDPDGLHAGVVTFQVVGDEESQAYFQVVNDGANLGSLSLLQAVPEEIAEFSITICATDQGTDPGPLSTDMTFAVVFVPTQGEPAFASSEHAVAFIEASAGMEESHQLPLAQDIANHLCEDDCHSIYYAIIDGNSEGHFGLDPVANALFLSAELIAEQSASHTLQVAASNSPDGGIPLPASILTVTVTVAEADPAPVFMAELYTAGISTADSIGCELLALHATQSEGAAITYAIDYDTMVVDPSLEAVCQSAFVLNAQTGVLTLNIQPTATMHGLFNFEVTATDTAGAQDRTDVTVYVVSSQNRLEHHHHHH
B3: Sf-CR10-12(PS) (receptor)
chain: MAFLDCLSATDEDGLHAGCVTFSIAGNDEAAEYFNVLNDGDNSAMLTLSQALPAGVQQFELVISATDGGTEPGPSSTDCSVTVVFVMTQGDPVFDDNAASVSFVEHEAGMSESFQLPQADDPSNYACMDDCHTIYYSIVDGNDGDHFAVEPETNVIYLLSPLDSSQQEQYSVVVAASNTPGGTSTLSSSLLTVTIGVSEANPSPIFESEFYTAGVLHTDSIHSELVYLAASHSEGLPIVYSIDQETMSIDESLQTVVEDAFDINSATGVISLNFQPTSVMHGSFDFEVVASDTCGASDCASVSIYMISTRVRVHHHHHH

Target: Cry1Fa toxin (Bacillus thuringiensis, UniProt Q03746)
Experiment: cell-based or functional assay

Point of comparison: B1, “larval mortality and larval weight, diet surface bioassay, neonate S. frugiperda, 0.1 µg/cm^2 Cry1Fa” value ~2 fold. Against it:
- B2 — lower, < 2 fold
- B3 — higher, ~4 fold
